Measured values: PMC10403129

Columns and labels:
[1] = tested on: hnRNP U WT (SP120) (rat); experiment: EMSA; details: C50, competitive with equimolar vector, 5 mM Mg2+, 10 mM MgCl2 in gel, EMSA: 35 mM Tris-HCl pH 8.0, 72 mM KCl, 5 mM MgCl2, 5 mM DTT, 5 mM spermidine, 50 ug/ml BSA, 37 C, on-bead: 50 mM Tris-HCl pH 8.0, 120 mM KCl
[2] = tested on: hnRNP U ΔSAP (rat); experiment: EMSA; details: C50, competitive with equimolar vector, 5 mM Mg2+, 10 mM MgCl2 in gel, EMSA: 35 mM Tris-HCl pH 8.0, 72 mM KCl, 5 mM MgCl2, 5 mM DTT, 5 mM spermidine, 50 ug/ml BSA, 37 C, on-bead: 50 mM Tris-HCl pH 8.0, 120 mM KCl
[3] = tested on: GST-RG (rat); experiment: on-bead pull-down; details: Hill 1.8, 100 ng pBS/FTZ, 2 ul beads, 10 mM Mg2+, EMSA: 35 mM Tris-HCl pH 8.0, 72 mM KCl, 5 mM MgCl2, 5 mM DTT, 5 mM spermidine, 50 ug/ml BSA, 37 C, on-bead: 50 mM Tris-HCl pH 8.0, 120 mM KCl, 10 mM MgCl2 …
[4] = tested on: GST-SAP (rat); experiment: on-bead pull-down; details: Hill 4.6, 100 ng pBS/FTZ, 2 ul beads, 10 mM Mg2+, EMSA: 35 mM Tris-HCl pH 8.0, 72 mM KCl, 5 mM MgCl2, 5 mM DTT, 5 mM spermidine, 50 ug/ml BSA, 37 C, on-bead: 50 mM Tris-HCl pH 8.0, 120 mM KCl, 10 mM MgCl2 …
[5] = tested on: GST-SAP-RG (rat); experiment: on-bead pull-down; details: Hill 2.5; 100 ng pBS/FTZ, 10 mM Mg2+; unit implied by comparison; EMSA: 35 mM Tris-HCl pH 8.0, 72 mM KCl, 5 mM MgCl2, 5 mM DTT, 5 mM spermidine, 50 ug/ml BSA, 37 C; on-bead: 50 mM Tris-HCl pH 8.0, 120 mM KCl, 10 mM MgCl2 …

Substance: FTZ S/MAR insert
- K half [1]: 14 nM
- K half [2]: 32 nM
- half-saturation protein amount (pmol (on beads)) [3]: 13
- half-saturation protein amount (pmol (on beads)) [4]: 22.5
- Kd (pmol (on beads)) [5]: 6.7
